Assay results as given in patent US20180371433A1 (UNIVERSITY OF FLORIDA RESEARCH FOUNDATION, published 2018).

Legend:
[1] = target: T1, SAMP1 with deletion of the C-terminal diglycine residues (ΔGG), D4GUF6
T1 chain: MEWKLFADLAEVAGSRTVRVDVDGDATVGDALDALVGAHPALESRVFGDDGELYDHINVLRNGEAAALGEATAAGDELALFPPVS

[2] = target: T2, ubiquitin-like SAMP1, D4GUF6
T2 chain: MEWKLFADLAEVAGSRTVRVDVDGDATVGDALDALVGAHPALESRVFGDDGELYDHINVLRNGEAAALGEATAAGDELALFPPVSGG

[3] = target: the molecule itself; experiment: size exclusion chromatography (Superdex 200); hexamers of ~134 kDa and trimers of ~64 kDa
Procedure: HvPPA (HVO_0729, UniProt: D4GT97) was expressed with an N-terminal poly-histidine tag (His₆) in Hfx. volcanii H26-pJAM2920 (Table 1). Hfx. volcanii cells were grown to stationary phase (OD₆₀₀ of 3-3.5) (4×1-liter cultures in 2.8-liter Fernbach flasks) and harvested by centrifugation (10-15 min at 9,200× g and 25° C.). Cell pellets were resuspended at 5 ml per g wet weight cells in Tris-salt buffer (20 mM Tris-HCl, pH 7.5, 2 M NaCl and 2.5 mM MgCl₂) supplemented with 40 mM imidazole and 1 mini-tablet protease inhibitor cocktail (Roche product no. 05892791001) per 10 ml buffer. Cells were lysed by passing through a French Press (three times at 20,000 psi). Whole cell lysate was clarified by centrifugation (twice for 30 min at 9,200× g and 4° C.) and sequential filtration using 0.8 μm and 0.2 μm cellulose acetate filters (Thermo Scientific Nalgene). Clarified cell lysate was applied to a HisTrap HP column (5 ml, 17-5248-01, GE Healthcare) pre-equilibrated and washed in 100 ml of Tris-salt buffer with 40 mM imidazole. Fractions containing HvPPA were eluted in Tris-salt buffer with a 25 ml gradient from 40 mM to 500 mM imidazole. […] Purity of HvPPA was assessed by Coomassie Blue stained SDS-PAGE gels and PPi activity assay. […]

B1: UbaA of Hfx. volcanii (protein)
chain: MTLSLDATQLDRYSRHIIMDEVGPEGQGRLLSSRVVVVGAGGLGAPAIQYLAAVGVGELVVVDDDVVERSNLQRQVVHCDDDVGTPKAESAAAFVRGLNPDVSVEPVEARVDKSNVHEVVAGSDVVVDASDNFPTRYLLNDVCRFEGIPLVHGAIYKFEGQATTLVPDGPCYRCLFPEAPEPGTVPDCATTGVLGVLPGTVGCIQATEAMKLLLDEGEALDGRLLFYDAMDMTFETVPYRTNPDCPVCGEGGVDSIEDIDYVESCAISLD
Pi detected by colorimetric (malachite green) assay in the HvPPA-coupled adenylation assay [1]: Deletion of the C-terminal diglycine residues of SAMP1 (ΔGG) were found to significantly reduce the level of Pi detected by this assay | Pi detected by colorimetric (malachite green) assay in the HvPPA-coupled adenylation assay [2]: Significant levels of Pi were detected when UbaA and HvPPA were coupled with ATP and SAMP1 in the reaction

B2: HvPPA with an N-terminal poly-histidine tag (His6-HvPPA) linked with a thrombin-cleavage site (enzyme)
chain: MVNLWEDMETGPNAPDEIYAVVECLKGERNKYEYDKDIPGVVLDRVLHSNVHYPSDYGFIPQTYYDDEDPFDVLVLVEDQTFPGCVIEARPVALMKMDDDGEQDDKVIAVPVEDPRYDHIEDLDDIPQQTLDEIDEFFATYKNLEAGKEVETLGWEDKQAAKDAIEHAMDLYEENFA
notes: Expressed in Hfx. volcanii H26-pJAM2920; Purified by Ni2+ IMAC and SEC as homo-hexamers (~134 kDa) and homo-trimers (~64 kDa); also called HVO_0729; Haloferax volcanii inorganic pyrophosphatase; not shown: N-terminal His6 tag and thrombin-cleavage site from vector pJAM503
binding result [3]: binds
